From PMC2474558 come the findings set out here.

The target of this test is hDOP–C352I Gαi2. Briefly: radioligand binding.

On to “DADLE (D-Ala^2, Leu^5-enkephalin) (peptide)”, for which the pKi (as a rule, −log10 of the Ki, conventionally taken in molar units) stood at 9.
